Blank lines part the entries; values can stand above or below the substance they belong to.
Columns and labels:
[1] = target: Lactate dehydrogenase (LDH) from rabbit muscle (rabbit) (UniProt P13491); assay: SEC; native luciferase or LDH alone; Superose 12 10/300 GL, reaction buffer, 4 °C; 1 mL fractions detected by immunoblot
HSPB1-3D = HSPB1-3D (UniProt P04792); assay: SEC; 2 µM luciferase (45 °C) or LDH (55 °C) heat shocked 15 min with 20 µM HSPB1 construct, or the HSPB1 construct heat shocked alone; analysed at the start (0 h) of the disaggregation reaction; Superose 12, reaction buffer, 4 °C; fractions detected by immunoblot
[2] = target: Lactate dehydrogenase (LDH) from rabbit muscle (rabbit) (UniProt P13491)
[3] = target: Lactate dehydrogenase (LDH) from rabbit muscle (rabbit) (UniProt P13491); remark: listed apart in the source
[4] = target: Lactate dehydrogenase (LDH) from rabbit muscle (rabbit) (UniProt P13491); assay: SEC; 2 µM luciferase (45 °C) or LDH (55 °C) heat shocked 15 min with 20 µM HSPB1 construct, or the HSPB1 construct heat shocked alone; analysed at the start (0 h) of the disaggregation reaction; Superose 12, reaction buffer, 4 °C; fractions detected by immunoblot

- stoichiometry N [1]: 4
Substance: Lactate dehydrogenase (LDH) from rabbit muscle (from UniProt P13491 1-332) (enzyme)

Substance: Lactate dehydrogenase (LDH) from rabbit muscle
- percent of total HSPB1-3D in the high molecular size fractions (7-9 mL) after heat shock with the substrate (HSPB1-3D): ~ 20% and 40%, respectively, of the total amount of HSPB1-3D was found in high molecular size fractions

- decrease of the optical density at 320 nm (light scattering) of 2 µM LDH aggregating at 55 °C with 20 µM HSPB1-3D, against LDH alone [2]: 90%
Substance: HSPB1-3D (from UniProt P04792 1-205) (natural protein)

- decrease of the optical density at 320 nm (light scattering) of 2 µM LDH aggregating at 55 °C with 20 µM HSPB1-3D-GxG, against LDH alone [3]: 95%
- percent of HSPB1-3D-GxG in the large molecular size fractions after heat shock with LDH [4]: 20%
Substance: HSPB1-3D-GxG (from UniProt P04792 1-205) (natural protein)

Reference: PMC8384840
